Tests used:
DG-PprI (IrrE) [1] = target: T1, DG-PprI (IrrE) (Deinococcus geothermalis, UniProt Q1J1D6 1-289); experiment: EMSA; 1 or 2 uM protein, 0.1 uM DNA; EMSA: 150 mM NaCl, 20 mM Tris-HCl pH 8.0, 0.1 mg/ml BSA, 0.1 uM FAM-labeled nucleic acid, 0/1/2 uM protein, room temperature 30 min, 10% native PAGE in 1x TB; settings: protein: recombinant, tags: tag removed
T1 sequence: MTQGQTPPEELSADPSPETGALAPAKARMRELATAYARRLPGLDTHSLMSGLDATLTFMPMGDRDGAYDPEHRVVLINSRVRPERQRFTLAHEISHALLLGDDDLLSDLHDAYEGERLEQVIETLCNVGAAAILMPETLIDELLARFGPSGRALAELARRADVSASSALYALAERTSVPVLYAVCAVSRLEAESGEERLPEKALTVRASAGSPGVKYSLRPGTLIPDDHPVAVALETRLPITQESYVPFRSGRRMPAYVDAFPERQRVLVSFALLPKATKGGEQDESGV

DG-PprI (IrrE) [2] = target: T1, DG-PprI (IrrE); experiment: EMSA; 1 or 2 uM protein, 0.1 uM RNA; EMSA: 150 mM NaCl, 20 mM Tris-HCl pH 8.0, 0.1 mg/ml BSA, 0.1 uM FAM-labeled nucleic acid, 0/1/2 uM protein, room temperature 30 min, 10% native PAGE in 1x TB; settings: protein: recombinant; tags: tag removed; label: 5' FAM
DG-PprI (IrrE) [3] = target: T1, DG-PprI (IrrE); experiment: X-ray crystallography; Mn2+; 2.2 A; PprI dimer in asymmetric unit; EMSA: 150 mM NaCl, 20 mM Tris-HCl pH 8.0, 0.1 mg/ml BSA, 0.1 uM FAM-labeled nucleic acid, 0/1/2 uM protein, room temperature 30 min, 10% native PAGE in 1x TB; settings: protein: recombinant; tags: tag removed

CGCTCTTCGCCATTCTCTTGAAGTTTCAAACTTGG (ssDNA) [35nt ssDNA]
binding result (DG-PprI (IrrE) [1]; label: 5' FAM): binds

B1: 35 bp dsDNA (dsDNA)
DNA 1: CGCTCTTCGCCATTCTCTTGAAGTTTCAAACTTGG
DNA 2: CCAAGTTTGAAACTTCAAGAGAATGGCGAAGAGCG
binding result (DG-PprI (IrrE) [1]; label: 5' FAM on F strand, blunt): no binding

CGCUCUUCGCCAUUCUCUUGAAGUUUCAAACUUGG (ssRNA) [35nt RNA]
binding result (DG-PprI (IrrE) [2]): no binding

TCATGAGCAGTTTTTTTTTTTTTTTTTTT (ssDNA) [29nt ssDNA (co-crystal)]
binding result (DG-PprI (IrrE) [3]): binds

From paper PMC10904395, “The Deinococcus protease PprI senses DNA damage by directly interacting with single-stranded DNA”
